{
  "source": "patent US20230036655A1",
  "about": "(OTSUKA PHARMACEUTICAL, published 2023)",
  "data": [
    {"target": "T1, human GDF15 (hGDF15), mature, wild-type (human, UniProt Q99988 197-308)", "T1 construct": "Bought recombinant protein: R&D Systems 957-GD-025/CF in most assays, 9279-GD in the crystal and the GDF15/GFRAL/RET assay; It was biotinylated in the GFRAL assay; also called hGDF15 (WT); rhGDF15", "T1 sequence": "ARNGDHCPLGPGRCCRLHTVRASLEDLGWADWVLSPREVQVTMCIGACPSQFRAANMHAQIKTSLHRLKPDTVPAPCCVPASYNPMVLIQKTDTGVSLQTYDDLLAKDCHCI", "assay": "ELISA, hGDF15 immobilised", "values": [
      {"binder": "H3-L72F (antibody, human IgG1, kappa, V domains shown, In the label, L means the L chain; also called HuMAB2 variant L72F) VH: QVQLQESGPGLVKPSETLSLTCTVSGFSINSDCYWIWIRQPPGKGLEYIGYTFYSGITYYNPSLASRTTISRDTSKNQFSLKLSSVTAADTAVYYCARDCDYAMDYWGQGTLVTVSS VL: DIQMTQSPSSLSASVGDRVTITCRASQDISNYLNWYQQKPGKAVKLLIHYTFTLHSGVPSRFSGSGSGTDYTLTISSLQPEDFATYFCQQGNTLPWTFGQGTKLEIKR", "binding result": "binds"},
      {"binder": "H3-L74H (antibody, human IgG1, kappa, V domains shown, In the label, L means the L chain; also called HuMAB2 variant L74H) VH: QVQLQESGPGLVKPSETLSLTCTVSGFSINSDCYWIWIRQPPGKGLEYIGYTFYSGITYYNPSLASRTTISRDTSKNQFSLKLSSVTAADTAVYYCARDCDYAMDYWGQGTLVTVSS VL: DIQMTQSPSSLSASVGDRVTITCRASQDISNYLNWYQQKPGKAVKLLIHYTSTHHSGVPSRFSGSGSGTDYTLTISSLQPEDFATYFCQQGNTLPWTFGQGTKLEIKR", "binding result": "binds"},
      {"binder": "H49D-L7 (antibody, human IgG1, kappa, V domains shown, In the label, H means the H chain; also called HuMAB2 variant H49D) VH: QVQLQESGPGLVKPSETLSLTCTVSGFSINDDCYWIWIRQPPGKGLEYIGYTFYSGITYYNPSLASRTTISRDTSKNQFSLKLSSVTAADTAVYYCARDCDYAMDYWGQGTLVTVSS VL: DIQMTQSPSSLSASVGDRVTITCRASQDISNYLNWYQQKPGKAVKLLIHYTSTLHSGVPSRFSGSGSGTDYTLTISSLQPEDFATYFCQQGNTLPWTFGQGTKLEIKR", "binding result": "binds"}
    ]},
    {"target": "T1, human GDF15 (hGDF15), mature, wild-type", "assay": "ELISA, hGDF15 immobilised; binding at 5 ng/mL antibody, HuMAB2 = 100", "description": "A 100 μL hGDF15 solution (0.4 μg/ml) was added to a 96-well plate and left at 4° C. until the next morning to prepare a plate for ELISA. To the plate, 1% BSA was added for blocking for 1 hour. A dilution series of the culture supernatant containing the variant antibody was prepared from 30-fold dilution (common ratio of dilution factor was 3), and 100 μL of each solution was added to the ELISA plate and left for 2 hours. As a secondary antibody, an HRP conjugated anti-human IgG antibody (Gene Tex, GTX26759) (20000-fold dilution) was added and left for 1 hour. TMB (Sigma, T-0440) was used for color development reaction, and 2N sulfuric acid was used as a reaction terminator. The absorbance was measured at 450 nm.", "units": {"fold change in binding strength compared to HuMAB2": "fold"}, "values": [
      {"binder": "H3-L48K (antibody, human IgG1, kappa, V domains shown, In the label, L means the L chain; Tested as culture supernatant; also called HuMAB2 variant L48K) VH: QVQLQESGPGLVKPSETLSLTCTVSGFSINSDCYWIWIRQPPGKGLEYIGYTFYSGITYYNPSLASRTTISRDTSKNQFSLKLSSVTAADTAVYYCARDCDYAMDYWGQGTLVTVSS VL: DIQMTQSPSSLSASVGDRVTITCRASQKISNYLNWYQQKPGKAVKLLIHYTSTLHSGVPSRFSGSGSGTDYTLTISSLQPEDFATYFCQQGNTLPWTFGQGTKLEIKR", "fold change in binding strength compared to HuMAB2": "~1.5"},
      {"binder": "H48S-L7 (antibody, human IgG1, kappa, V domains shown, Tested as culture supernatant; also called HuMAB2 variant H48S) VH: QVQLQESGPGLVKPSETLSLTCTVSGFSISSDCYWIWIRQPPGKGLEYIGYTFYSGITYYNPSLASRTTISRDTSKNQFSLKLSSVTAADTAVYYCARDCDYAMDYWGQGTLVTVSS VL: DIQMTQSPSSLSASVGDRVTITCRASQDISNYLNWYQQKPGKAVKLLIHYTSTLHSGVPSRFSGSGSGTDYTLTISSLQPEDFATYFCQQGNTLPWTFGQGTKLEIKR", "fold change in binding strength compared to HuMAB2": "~1.5"},
      {"binder": "H120F-L7 (antibody, human IgG1, kappa, V domains shown, In the label, H means the H chain; Tested as culture supernatant; also called HuMAB2 variant H120F) VH: QVQLQESGPGLVKPSETLSLTCTVSGFSINSDCYWIWIRQPPGKGLEYIGYTFYSGITYYNPSLASRTTISRDTSKNQFSLKLSSVTAADTAVYYCARDCDFAMDYWGQGTLVTVSS VL: DIQMTQSPSSLSASVGDRVTITCRASQDISNYLNWYQQKPGKAVKLLIHYTSTLHSGVPSRFSGSGSGTDYTLTISSLQPEDFATYFCQQGNTLPWTFGQGTKLEIKR", "fold change in binding strength compared to HuMAB2": "~1.5"},
      {"binder": "H3-L112D (antibody, human IgG1, kappa, V domains shown, In the label, L means the L chain; Tested as culture supernatant; also called HuMAB2 variant L112D) VH: QVQLQESGPGLVKPSETLSLTCTVSGFSINSDCYWIWIRQPPGKGLEYIGYTFYSGITYYNPSLASRTTISRDTSKNQFSLKLSSVTAADTAVYYCARDCDYAMDYWGQGTLVTVSS VL: DIQMTQSPSSLSASVGDRVTITCRASQDISNYLNWYQQKPGKAVKLLIHYTSTLHSGVPSRFSGSGSGTDYTLTISSLQPEDFATYFCQQGDTLPWTFGQGTKLEIKR", "fold change in binding strength compared to HuMAB2": "~1.5"},
      {"binder": "H83R-L7 (antibody, human IgG1, kappa, V domains shown, In the label, H means the H chain; Tested as culture supernatant; also called HuMAB2 variant H83R) VH: QVQLQESGPGLVKPSETLSLTCTVSGFSINSDCYWIWIRQPPGKGLEYIGYTFYSGITYYNPSLRSRTTISRDTSKNQFSLKLSSVTAADTAVYYCARDCDYAMDYWGQGTLVTVSS VL: DIQMTQSPSSLSASVGDRVTITCRASQDISNYLNWYQQKPGKAVKLLIHYTSTLHSGVPSRFSGSGSGTDYTLTISSLQPEDFATYFCQQGNTLPWTFGQGTKLEIKR", "fold change in binding strength compared to HuMAB2": "~1.5"}
    ]}
  ]
}
